Assay results from US20240400717A1, “Antibody Binding to CHI3L1 for Treating Cancer” (National Cheng Kung University, priority 2021, published 2024).

What was measured:
mouse CHI3L1 antigen = mouse CHI3L1 antigen (Mus musculus, UniProt Q61362); assay: Direct ELISA of phage clones, cross-reaction with mouse CHI3L1; type: binding; settings: FIG. 1C
mouse rCHI3L1 = mouse rCHI3L1 (Mus musculus, UniProt Q61362); assay: ELISA binding to mouse rCHI3L1; settings: FIG. 10B
Procedure: FIGS. 10A to 10B show binding curves of ELISA assay indicated the binding of R4-4 (circle), R4-54 (square), 293R3-2 (triangle), and 293R3-4 (reverse triangle) to (FIG. 10A) human rCHI3L1 and (FIG. 10B) mouse rCHI3L1.
(§1) Thus, we established orthotopic animal models by directly injecting murine pancreatic cancer KPPC-luc cells (5×10^6) into pancreas of immunocompetent (C57BL/6J) mice. All mice were divided into two groups and treated with IgG isotype antibody as control, or mAb clone R4-4 (5 mg/kg) by intravenous (i.v.) injection via tail-vein at indicated time points (Day 3, Day 7, Day 10, and Day 14). Mice were sacrificed to verify tumor information on day 28. […] Data was presented as means±S.D. P values refer to two-tailed Student's t test. * P<0.05, ** P<0.01.

KPPC-luc cells [1] = assay: KPPC-luc orthotopic C57BL/6J mice model, mono-treatment; type: in vivo
Procedure: as §1

[2] = Mouse muscle fiber area analysis (cachexia) in KPPC-luc orthotopic model; type: in vivo, C57BL/6J mice
Procedure: Since pancreatic patients often suffer from cachexia, the cancer-related muscle loss disorder (Henderson et al. 2018; Yoo et al. 2021), we further performed the mouse muscle fiber area analysis in IgG and R4-4 (10 mg/kg) groups. […] The value of the cross-sectional cutoff area was set to 1800, representing severe muscle loss (FIG. 15D).

KPPC-luc cells [3] = assay: KPPC-luc orthotopic C57BL/6J mice model, mAb and chemotherapy combination; settings: for tumor weight: day 29
MiaPaCa-2 cells = assay: MiaPaCa-2-bearing hHSC-HIS mouse model; type: in vivo, hHSC reconstituted ASID mice
From the text: (§2) We used the advanced severe immunodeficiency (ASID) mice those were implanted with human […] hematopoietic stem cells (HSCs). MiaPaCa-2 and H460 cells were then subcutaneously injected into hHSC reconstituted ASID mice to evaluate the anti-tumor effects of CHI3L1 mAb clone R4-54 on lung and pancreatic cell lines in vivo. […] Tumor and peripheral blood were also harvest for further immune cell population examinations. […] In addition, peripheral blood samples of two tumor-bearing hHSC-HIS mice models were collected for analysis of immune cell populations. […] Data was presented as means±S.D. P values refer to two-tailed Student's t test. * P<0.05, ** P<0.01, *** P<0.001.

H460 cells = assay: H460-bearing hHSC-HIS mouse model; type: in vivo, hHSC reconstituted ASID mice
From the text: as §2

[4] = immunohistochemical staining, CD86 and CD163

mouse CHI3L1 antigen, sequence (Q61362 30-389): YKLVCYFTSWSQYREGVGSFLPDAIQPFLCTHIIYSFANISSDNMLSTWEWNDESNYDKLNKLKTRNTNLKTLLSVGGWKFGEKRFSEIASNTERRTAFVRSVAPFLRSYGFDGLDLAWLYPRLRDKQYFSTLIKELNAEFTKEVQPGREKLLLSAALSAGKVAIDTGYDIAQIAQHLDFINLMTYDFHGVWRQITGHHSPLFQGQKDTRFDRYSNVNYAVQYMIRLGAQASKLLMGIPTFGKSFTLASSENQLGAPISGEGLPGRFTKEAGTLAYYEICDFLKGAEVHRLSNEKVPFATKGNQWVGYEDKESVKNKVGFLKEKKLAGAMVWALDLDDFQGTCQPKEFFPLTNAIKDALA
mouse rCHI3L1, sequence (Q61362 30-389): as above

B1: R4-4: fully human anti-CHI3L1 IgG1 mAb, Table 1 No. 9; heavy chain SEQ ID NO: 9, light chain SEQ ID NO: 10 (antibody, listed as Homo sapiens)
VH: EVQLLESGGGLLQPGGSLRLSCAASGLTFRNYAMTWVRQAPGKGLEWVSTISGNGDETFYADSVKGHFTISRDNSKDTVYLQMNSLRAEDTAVYYCAKGGHYSFFDSWGQGSPVTVSS
light: NFMLTQPHSVSESPGKTVTISCTRSSGSIASNYVQWYQQRPGSSPTTVIYEDNQRPSGVPDRFSGSIDSSSNSASLTISGLKTEDEADYYCQSYDSSNYVFGTGTKVTVLGQPKANPTVTLFPPSSEELQANKATLVCLISDFYPGAVTVAWKADGSPVKAGVETTKPSKQSNNKYAASSYLSLTPEQWKSHRSYSCQVTHEGSTVEKTVAPAECS
recognition of mouse CHI3L1 by phage clones (mouse CHI3L1 antigen): cross-react with mouse CHI3L1
cross-reaction with murine CHI3L1 (mouse rCHI3L1): the only one that could cross-react with murine CHI3L1
tumor weight (KPPC-luc cells [1]; 5 mg/kg i.v. Day 3, 7, 10, 14, day 28, vs IgG): significant reduction of tumor weight
body weight (KPPC-luc cells [1]; 5 mg/kg i.v., vs IgG): without apparently body weight change
M1/M2 ratio (KPPC-luc cells [1]; flow cytometry, 5 mg/kg i.v.): increased the M1/M2 ratio
tumor infiltrating M2-like TAMs (CD206+) (KPPC-luc cells [1]; flow cytometry, 5 mg/kg i.v.): decreased
tumor infiltrating Treg (CD45+, Foxp3+) populations (KPPC-luc cells [1]; flow cytometry, 5 mg/kg i.v.): decreased
muscle fiber area ([2]; R4-4 10 mg/kg compared to IgG): larger muscle fiber area
muscle fibers below the cutoff value ([2]; R4-4 10 mg/kg, cross-sectional cutoff area 1800): 30.4%
tumor weight (KPPC-luc cells [3]; GEM 25 mg/kg, R4-4 10 mg/kg, Abraxane 2.5 mg/kg, i.p. day 14, 20, 25): 2.61 g
tumor weight (KPPC-luc cells [3]; R4-4 15 mg/kg i.p. day 14, 20, 25): 1.74
Treg (CD4+, CD25+, Foxp3+) (KPPC-luc cells [3]; R4-4 15 mg/kg, flow cytometry): significant decrease of Treg
angiogenesis level indicated by CD31 (KPPC-luc cells [3]; all treated groups (R4-4 10 or 15 mg/kg)): largely reduced
tumor-infiltrating M1-like TAMs (CD86+, CD11b+) and M1/M2 ratio (KPPC-luc cells [3]; flow cytometry): increased M1-like TAMs
tumor-infiltrating M2-like TAMs (CD206+, CD11b+) (KPPC-luc cells [3]; flow cytometry): decreased M2-like TAMs

B2: R4-54: fully human anti-CHI3L1 IgG1 mAb, Table 1 No. 34; heavy chain SEQ ID NO: 33, light chain SEQ ID NO: 34 (antibody, listed as Homo sapiens)
VH: QVQLVESGGGVVQPGRSLRLSCAASGFTFSSYGMHWVRQAPGKGLEWVAVISYDGSDKDYADSVKGRFTISRDNSKNTLFLQMNSLRAEDTAVYYCARDDYDSTYYFDNWGQGTTVTVSS
light: SYELTQPPSVSVSPGQTASITCSGDILADQYASWYQQKPGQSPVLVIYHDTKRPSGVPERFSGSTSGNTATLTISGTQAMDEAAYYCQAWDINTAWVFGGGTQLTVLGQPKAAPSVTLFPPSSEELQANKATLVCLISDFYPGAVTVAWKADSSPVKAGVETTTPSKQSNNKYAASSYLSLTPEQWKSHRSYSCQVTHEGSTVEKTVAPTECS
growth of subcutaneous xenografts (MiaPaCa-2 cells; 5 mg/kg i.v. every five days from day 14, day 32): significantly delayed the growth
M2-like TAM and Treg populations in tumor-infiltrating immune cells (MiaPaCa-2 cells; flow cytometry): M2-like TAM and Treg populations were decreased
percentages of M1 macrophages and CD8+ T cells in tumor-infiltrating immune cells (MiaPaCa-2 cells; flow cytometry): increased the percentages of M1 macrophages and CD8+ T cells
intratumoral M1 to M2 ratio and CD8 T cells (MiaPaCa-2 cells; [4]): M1 to M2 ratio and CD8 T cells were both increased
peripheral blood CD8+ T cells and Tregs (MiaPaCa-2 cells; peripheral blood): increased CD8+ T cells and decreased Tregs
growth of subcutaneous xenografts (H460 cells; 5 mg/kg i.v. every five days from day 6, day 27): significantly delayed the growth
M2-like TAM and Treg populations in tumor-infiltrating immune cells (H460 cells; flow cytometry): M2-like TAM and Treg populations were decreased
percentages of M1 macrophages and CD8+ T cells in tumor-infiltrating immune cells (H460 cells; flow cytometry): increased the percentages of M1 macrophages and CD8+ T cells
intratumoral M1 to M2 ratio and CD8 T cells (H460 cells; [4]): M1 to M2 ratio and CD8 T cells were both increased
peripheral blood CD8+ T cells and Tregs (H460 cells; peripheral blood): increased CD8+ T cells and decreased Tregs
